This assay deals with papain (UniProt P00784).
Chain of UniProt P00784 (P00784 134-345): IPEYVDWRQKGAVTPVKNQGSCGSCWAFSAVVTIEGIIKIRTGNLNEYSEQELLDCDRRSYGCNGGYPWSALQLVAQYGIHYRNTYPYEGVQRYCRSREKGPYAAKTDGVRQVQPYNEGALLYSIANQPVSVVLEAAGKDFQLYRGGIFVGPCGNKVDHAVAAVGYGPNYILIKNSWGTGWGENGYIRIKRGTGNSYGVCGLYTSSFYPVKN

As for “salivary tick cystatin OmC2, recombinant, from insect Sf9 cells, with C-terminal oligo His-tag (non-labeled) (natural protein)”, the active site titration of 10 nM papain with cystatin OmC2 (substrate 10 μM Z-Phe-Arg-AMC, 0.1 M phosphate buffer pH 6.0): molar ratio at which dF/dt = 0 (text: the inhibitor was 88% active) amounted to 1.16 molar ratio.
